One molecule from US20230051538A1 (UNIVERSITY OF BRITISH COLUMBIA, published 2023) can be followed below.

The target in one experiment is T1, Human Transferrin (human, UniProt P02787 20-698).
T1 construct: irrelevant antigen in ELISA; also called HT
Put plainly: indirect ELISA. On the technique in general: ELISA stands for enzyme-linked immunosorbent assay.

In experiment [1] the target is T2, Bovine serum albumin (BSA) (bovine, UniProt P02769 25-607).
T2 construct: carrier protein alone as ELISA control
Put plainly: indirect ELISA.

Another experiment deals with T3, HSA (human, UniProt P02768 25-609).
T3 construct: irrelevant antigen in ELISA; read as human serum albumin; also called Hum; SA; HAS
Put plainly: indirect ELISA.

Experiment [2] deals with T4, cyclo(CGTKEQGGGG), free (cyclized via a head-to-tail (C-G) amide bond).
T4 construct: free cyclic peptide, not conjugated; also called (1,4)-C-Free
T4 peptide: CGTKEQGGGG
Put plainly: indirect ELISA.

For experiment [3], the target named is T5, alpha-synuclein oligomers (UniProt P37840 1-140). Put plainly: cell-based or functional assay.
Experiment [4] has as its target alpha-synuclein sonicated preformed fibrils (soluble fibrils) (human, UniProt P37840 1-140). Put plainly: Millipore SMC, antibody-coated magnetic particles, detection with labeled 4D6.
Experiment [5] addresses T5, alpha-synuclein oligomers. Described as above.
A further experiment addresses T6, cyclo(CGTKEQGGGG)-BSA (also: conjugated to BSA via maleimide-based coupling).
T6 construct: also called (1,4)-C-BSA; 1,4-C-BSA
T6 peptide: cyclo(CGTKEQGGGG)
Put plainly: indirect ELISA.

Another experiment addresses T7, cyclo(CGGTKEQGG)-BSA (also: conjugated to BSA via maleimide-based coupling).
T7 construct: also called (2,2)-C-BSA; (2, 2) C-BSA
T7 peptide: cyclo(CGGTKEQGG)
Put plainly: indirect ELISA.

Another experiment addresses T8, Linear CGGTKEQGG-BSA (also: conjugated to BSA).
T8 construct: linear peptide-BSA screening antigen; also called (2,2)-L-BSA; (2, 2) L-BSA
T8 peptide: CGGTKEQGG
Put plainly: indirect ELISA.

The target of the next experiment is T9, cyclo(CGGTKEQGGGG)-BSA (also: conjugated to BSA via maleimide-based coupling).
T9 construct: also called (2,4)-C-BSA; 2,4-C-BSA
T9 peptide: cyclo(CGGTKEQGGGG)
Put plainly: indirect ELISA.

Experiment [6] concerns the target T4, cyclo(CGTKEQGGGG), free. Put plainly: indirect ELISA.

Where two headings read alike, the source gives them in different places. Where no end group is shown, it is not given here.

T1 sequence (P02787 20-698 limits assumed): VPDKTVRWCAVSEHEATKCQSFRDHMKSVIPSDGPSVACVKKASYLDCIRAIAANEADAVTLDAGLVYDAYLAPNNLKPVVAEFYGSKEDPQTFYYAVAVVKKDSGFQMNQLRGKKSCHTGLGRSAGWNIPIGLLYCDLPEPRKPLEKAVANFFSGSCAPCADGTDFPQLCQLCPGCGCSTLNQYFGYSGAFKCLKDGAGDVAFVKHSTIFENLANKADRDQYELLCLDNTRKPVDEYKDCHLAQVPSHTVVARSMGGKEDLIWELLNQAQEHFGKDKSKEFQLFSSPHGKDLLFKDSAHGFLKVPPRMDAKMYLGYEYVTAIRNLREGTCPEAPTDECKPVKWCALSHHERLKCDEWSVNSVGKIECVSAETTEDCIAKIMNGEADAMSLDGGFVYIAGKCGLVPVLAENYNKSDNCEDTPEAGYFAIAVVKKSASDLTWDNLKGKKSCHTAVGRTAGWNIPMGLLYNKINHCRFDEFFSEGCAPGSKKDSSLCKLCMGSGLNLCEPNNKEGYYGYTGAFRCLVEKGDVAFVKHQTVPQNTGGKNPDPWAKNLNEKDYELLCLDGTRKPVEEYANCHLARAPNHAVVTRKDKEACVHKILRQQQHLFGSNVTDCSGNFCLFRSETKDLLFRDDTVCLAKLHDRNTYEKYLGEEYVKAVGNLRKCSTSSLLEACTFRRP
T2 sequence (P02769 25-607 limits assumed): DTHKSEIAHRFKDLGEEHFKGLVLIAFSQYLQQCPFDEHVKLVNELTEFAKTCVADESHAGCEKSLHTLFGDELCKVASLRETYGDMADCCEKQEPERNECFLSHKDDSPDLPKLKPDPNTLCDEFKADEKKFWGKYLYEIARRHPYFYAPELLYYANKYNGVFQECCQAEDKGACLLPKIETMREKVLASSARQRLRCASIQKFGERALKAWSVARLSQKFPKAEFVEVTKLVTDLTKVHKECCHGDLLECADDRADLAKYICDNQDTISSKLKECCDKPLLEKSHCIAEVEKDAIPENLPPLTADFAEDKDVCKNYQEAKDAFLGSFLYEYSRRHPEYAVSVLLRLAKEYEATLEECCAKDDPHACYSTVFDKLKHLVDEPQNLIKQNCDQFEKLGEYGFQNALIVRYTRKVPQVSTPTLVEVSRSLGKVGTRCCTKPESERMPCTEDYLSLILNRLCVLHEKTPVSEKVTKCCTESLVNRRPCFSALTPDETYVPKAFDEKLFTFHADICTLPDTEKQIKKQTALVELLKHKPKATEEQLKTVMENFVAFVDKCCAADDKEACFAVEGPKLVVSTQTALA

B1: 10D5 (antibody, V domains shown)
VH: EVQLQQSGAELVRPGALVKLSCKGSGFNIKDYYMSWVKQRPEQGLEWIGWIDPENDNTIYDSKFQGKASITADTSSNTAYLQFSSLTPEDTAVYYCAMGGFTYWGQGTLVTVSA
VL: not shown
Consider B1, for which the ELISA reading in the experiment with Human Transferrin was determined as 0.06; in [1], 0.066; with HSA, 0.065; in the experiment with cyclo(CGTKEQGGGG), free [2], 1.25; in the experiment with cyclo(CGTKEQGGGG)-BSA it was 2.04; with cyclo(CGGTKEQGG)-BSA, 0.064. For the same molecule, the ELISA reading was determined as 0.045 with Linear CGGTKEQGG-BSA; 1.95 with cyclo(CGGTKEQGGGG)-BSA; 1.25 in the experiment with cyclo(CGTKEQGGGG), free [6]. In [3], the “dopaminergic neuron survival, antibody at 250 nM” value is 88.9 % of the control. Also, the “fold selectivity for fibrils versus monomers (from LLoQ)” value in [4] was 11200 fold. Also, the “fold selectivity for oligomers versus monomers (from LLoQ)” value in experiment [5] is 9300 fold.
